{"source": "paper PMC3214626", "target": "Slc1-FLAG (SycE-like chaperone 1; CT043) (Chlamydia trachomatis)", "assay": "SEC", "data": [{"substance": "Slc1-FLAG (SycE-like chaperone 1; CT043) (natural protein)", "values": [{"measurement": "stoichiometry N", "value": 2}]}]}
